Measured values as given in patent US20250355001A1, “METHOD FOR DETECTING A TAU PROTEIN FRAGMENT IN A SAMPLE” (GTINVENT LIMITED, priority 2022, published 2025).

Experiments:
[1] = system: core tau in plasma of wildtype, Line 1 and Line 66 mice; test: S1D12 mAb 6-week repeat-dose mouse study; plasma tau by CA4-S1G2 Simoa; type: in vivo; settings: for plasma tau (CA4-S1G2 Simoa): 30 mg/kg i.p. once per week, six weeks
Experimental: A total of 12 wildtype, 12 Line 1 and 12 Line 66 female mice were used in this study-Line 1 and Line 66 are transgenic mouse models of tauopathy ( Melis et al., 2015). Animals were 2 months old at the beginning of the study. Mice of each genotype were injected intraperitoneally (i.p.) with either vehicle or S1D12 mAb (30 mg/kg), once per week, for six consecutive weeks.
Seven days post final dose, cardiac puncture blood sampling was performed. mice were anaesthetised using an overdose of sodium pentobarbital (i.p.) and blood was collected via cardiac puncture through a Plastipak syringe pre-rinsed with heparinised saline (10 U/mL) and transferred into a plastic vial containing lithium heparin anticoagulant. Blood samples were centrifuged to obtain plasma at 2,000×g for 5 min at 6° C.
A three-step assay was performed and analysed by following the previously described plasma screening methods using CA4 antibody capture beads, S1G2 detector (10 ng/ml) and the plasma samples added in 1:8 dilution.

dGAE aggregates = dGAE aggregates (Homo sapiens, UniProt P10636); test: Sandwich ELISA on SDS/Triton X-100 treated dGAE aggregates; type: binding; settings: S1D12 mAb capture, S1G2 scAb detection; SDS + Triton X-100
Chain of dGAE aggregates (P10636 614-708): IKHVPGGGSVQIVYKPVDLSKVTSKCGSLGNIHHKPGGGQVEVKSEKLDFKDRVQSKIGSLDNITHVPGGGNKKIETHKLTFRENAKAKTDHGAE
Experimental: We have noticed Sodium dodecyl sulphate (SDS) can break apart dGA/dGAE aggregates and separate them into smaller fragments by performing an SDS-PAGE. This has been replicated and tested using an ELISA as described below.
For aggregation, 1000 μL 100 μM dGAE+10 μL 10 mM DTT was added to a ‘LoBind’ microfuge tubes and agitated at 700 RPM/37° C. for 24 hours. Resulting sample centrifuged at 17,000×g/4° C. for 60 min and supernatant discarded to remove left over monomer. Pellet resuspended in half the original volume for future experiments and hereafter referred to as ‘aggregates’. 1 μl of aggregates was added to 1 ml of PBS and SDS was added to a final concentration of 1% (w/v). This was left to incubate on lab bench for 1 h with gentle agitation every 15 minutes. In order to neutralize the SDS effect on ELISA, Triton X-100 added to a final concentration of 3% (v/v) and mixed gently by pipetting to prevent any bubble formation. 200 μl added of this mix was to the first well of an ELISA plate coated with 1 μg/ml S1D12 mAb and blocked with 2% MPBS. Similarly aggregates treated with only SDS or Triton X-100, untreated aggregates, dGAE monomers treated with only SDS or SDS+Titon X-100 were also added to designated wells as controls. All samples were then double diluted across the plate in final volumes of 100 μl. The final column was left with no protein to act as a blank. This was allowed to stand at room temperature for 1 hour followed by the addition of detection scAb-S1G2 at 10 μg/ml. Anti-HuCk HRP labelled secondary antibody was added as described previously and ELISA data generated was represented using the graph below.

B1: S1D12 mAb: S1D12 reformatted; heavy chain SEQ ID NO: 445, light chain 446 (antibody)
heavy: QVQLQESGPSLVKPSQTLSLTCTVSGFSLNNNAVGWVRQAPGKVPESLVGCSSDGTCYYNSALKSRLDITRDTSKNQISLSLSSVTTDDAAVYYCTRGHYSIYGYDYLGTIDYWGPGLLVTVSSAKTTAPSVYPLAPVCGDTTGSSVTLGCLVKGYFPEPVTLTWNSGSLSSGVHTFPAVLQSDLYTLSSSVTVTSSTWPSQSITCNVAHPASSTKVDKKIEPRGPTIKPCPPCKCPAPNLLGGPSVFIFPPKIKDVLMISLSPIVTCVVVDVSEDDPDVQISWFVNNVEVHTAQTQTHREDYNSTLRVVSALPIQHQDWMSGKEFKCKVNNKDLPAPIERTISKPKGSVRAPQVYVLPPPEEEMTKKQVTLTCMVTDFMPEDIYVEWTNNGKTELNYKNTEPVLDSDGSYFMYSKLRVEKKNWVERNSYSCSVVHEGLHNHHTTKSFSRTPGK
light: QAVLTQPSSVSGSLGQRVSITCSGSSSNVGGGNSVGWYQHLPGSGLKTIIYDTNSRPSGVPDRFSGSRSGNTATLTINSLQAEDEGDYYCVTGDSTTHDDLVGSGTRLTVLGGQPKSSPSVTLFPPSSEELETNKATLVCTITDFYPGVVTVDWKVDGTPVTQGMETTQPSKQSNNKYMASSYLTLTARAWERHSSYSCQVTHEGHTVEKSLSRADCS
modifications: S1D12 mAB Heavy Chain; S1D12 mAB Light Chain
- increase of core tau in plasma vs vehicle ([1]; L1 mice): more than 100 fold
- plasma tau (CA4-S1G2 Simoa) ([1]; L1 mice): > 100 ng/mL
- plasma tau (CA4-S1G2 Simoa) ([1]; L66+/+ mice, mean (SEM)): 3.52 (0.20) ng/ml
- increase of core tau in plasma vs vehicle ([1]; L66 mice): more than a threefold increase
- increase of core tau in plasma vs vehicle ([1]; wild-type mice): less than a two-fold increase
- plasma tau (CA4-S1G2 Simoa) ([1]; wildtype mice, mean (SEM)): 3.57 (0.22) ng/ml
- dGAE aggregates detectable (dGAE aggregates): approximately 2 ng/ml
